# Source: article PMC3046868 (Nature, 2010)
# Biological target: the molecule itself
# Test: western blot
protein,measurement,value
"HA-tagged wild-type APCDD1 (natural protein, glycosylated) not shown",stoichiometry N,2
